From patent publication US20220333113
pKd: −log10 of the molar value.

Experiments:
[1] = target: T1, RIG-I WT full-length (Homo sapiens) (UniProt O95786); experiment: filter; details: 37 C
T1 sequence: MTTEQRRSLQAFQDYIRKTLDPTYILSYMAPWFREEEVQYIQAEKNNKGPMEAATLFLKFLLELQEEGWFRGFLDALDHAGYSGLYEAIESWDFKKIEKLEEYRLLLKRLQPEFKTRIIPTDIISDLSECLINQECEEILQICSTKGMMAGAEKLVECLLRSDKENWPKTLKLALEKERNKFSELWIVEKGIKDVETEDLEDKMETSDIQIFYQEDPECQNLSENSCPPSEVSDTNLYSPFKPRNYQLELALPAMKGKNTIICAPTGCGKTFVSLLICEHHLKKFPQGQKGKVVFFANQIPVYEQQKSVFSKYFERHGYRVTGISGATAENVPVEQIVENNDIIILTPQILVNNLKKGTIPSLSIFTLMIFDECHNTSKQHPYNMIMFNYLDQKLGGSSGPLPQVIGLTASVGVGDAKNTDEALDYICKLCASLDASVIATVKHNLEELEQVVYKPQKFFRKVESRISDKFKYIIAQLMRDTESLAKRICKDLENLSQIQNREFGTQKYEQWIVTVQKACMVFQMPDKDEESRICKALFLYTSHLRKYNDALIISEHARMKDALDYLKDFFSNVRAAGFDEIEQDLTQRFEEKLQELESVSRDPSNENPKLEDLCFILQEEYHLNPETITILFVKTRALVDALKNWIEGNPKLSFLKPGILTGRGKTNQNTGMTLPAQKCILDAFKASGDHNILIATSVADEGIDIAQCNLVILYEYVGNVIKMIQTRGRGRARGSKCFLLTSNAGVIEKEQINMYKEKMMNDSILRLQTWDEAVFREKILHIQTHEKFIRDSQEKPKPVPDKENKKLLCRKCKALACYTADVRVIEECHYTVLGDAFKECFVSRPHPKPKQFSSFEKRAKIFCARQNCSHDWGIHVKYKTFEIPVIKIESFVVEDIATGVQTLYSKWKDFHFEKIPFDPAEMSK

[2] = target: T2, RIG-I CTD (aa 792-925) (Homo sapiens) (UniProt O95786); experiment: EMSA; details: 1 mM DTT, 37 C
T2 sequence: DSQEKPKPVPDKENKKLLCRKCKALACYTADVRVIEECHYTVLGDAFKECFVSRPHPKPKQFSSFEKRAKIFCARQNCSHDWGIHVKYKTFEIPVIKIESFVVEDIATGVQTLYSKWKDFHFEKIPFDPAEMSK

[3] = J = PPdU at every J, SB18T0.01 + 20% glycerol

Row | Sequence | pKd [2, 3] | other results
1 | ATCTCCGGGAACACTGTCTGATTAATGTCTTGTAAGCGGGTTTTCGGCAG [14833-10_3] | – | pKd ([1]; J = PPdU at every J, SB18T0.01 + 1 mM DTT): 7.92
2 | ATCTCTGTGTCATGTGTTTTAATGTCAGTTTAATG [14832-55_10] | 8.82 | –
3 | ATCTCTGTGTCATGTGTTTTAATGTCAGTTTAATGATG [14832-55_9] | 9.82 | –
4 | ATCTCTGTGTCATGTGTTTTAATGTCAGTTTAATGATGAGGGAC [14832-55_7] | 10.96 | –
5 | ATCTCTGTGTCATGTGTTTTAATGTCAGTTTAATGATGAGGGACGGG [14832-55_6] | 10.74 | –
6 | ATCTCTGTGTCATGTGTTTTAATGTCAGTTTAATGATGAGGGACGGGCAG [14832-55_3] | – | pKd ([1]; J = 5-(N-3-phenylpropylcarboxyamide)-2'-deoxyuridine (PPdU) at every J (n in listing), SB18T0.01 (5 mM MgCl2) + 1 mM DTT): 10.62; pKd ([2]; J = 5-(N-3-phenylpropylcarboxyamide)-2'-deoxyuridine (PPdU) at every J (n in listing), SB18T0.01 (5 mM MgCl2) + 20% glycerol): 11.14
7 | CTGTGTCATGTGTTTTAATGTCAGTTTAATGATGAGG [14832-55_12] | 9.47 | –
8 | GTGTCATGTGTTTTAATGTCAGTTTAATGATGAGGGACGGGCAG [14832-55_5] | 7.44 | –
9 | TCTGTGTCATGTGTTTTAATGTCAGTTTAATGATGA [14832-55_15] | 10.20 | –
10 | TCTGTGTCATGTGTTTTAATGTCAGTTTAATGATGAG [14832-55_14] | 10.18 | –
11 | TCTGTGTCATGTGTTTTAATGTCAGTTTAATGATGAGG [14832-55_11] | 10.17 | –
12 | TCTGTGTCATGTGTTTTAATGTCAGTTTAATGATGAGGGACGGGCAG [14832-55_4] | 10.08 | –
13 | TGTGTCATGTGTTTTAATGTCAGTTTAATGATGAGG [14832-55_13] | 8.37 | –
